# Reference: article PMC9942828
# What was measured:
# [1] = biological target: PA-tagged SORLA VPS10p-domain (1 to 753), T659C mutant (human) (UniProt Q92673); test: cross-linking
# [2] = biological target: SORLA dimer of SORLA-V1 and SORLA-V2 with reconstituted Venus (human) (UniProt Q92673); test: co-IP
# UniProt Q92673, sequence (Q92673 82-2214, chain 1 of 2): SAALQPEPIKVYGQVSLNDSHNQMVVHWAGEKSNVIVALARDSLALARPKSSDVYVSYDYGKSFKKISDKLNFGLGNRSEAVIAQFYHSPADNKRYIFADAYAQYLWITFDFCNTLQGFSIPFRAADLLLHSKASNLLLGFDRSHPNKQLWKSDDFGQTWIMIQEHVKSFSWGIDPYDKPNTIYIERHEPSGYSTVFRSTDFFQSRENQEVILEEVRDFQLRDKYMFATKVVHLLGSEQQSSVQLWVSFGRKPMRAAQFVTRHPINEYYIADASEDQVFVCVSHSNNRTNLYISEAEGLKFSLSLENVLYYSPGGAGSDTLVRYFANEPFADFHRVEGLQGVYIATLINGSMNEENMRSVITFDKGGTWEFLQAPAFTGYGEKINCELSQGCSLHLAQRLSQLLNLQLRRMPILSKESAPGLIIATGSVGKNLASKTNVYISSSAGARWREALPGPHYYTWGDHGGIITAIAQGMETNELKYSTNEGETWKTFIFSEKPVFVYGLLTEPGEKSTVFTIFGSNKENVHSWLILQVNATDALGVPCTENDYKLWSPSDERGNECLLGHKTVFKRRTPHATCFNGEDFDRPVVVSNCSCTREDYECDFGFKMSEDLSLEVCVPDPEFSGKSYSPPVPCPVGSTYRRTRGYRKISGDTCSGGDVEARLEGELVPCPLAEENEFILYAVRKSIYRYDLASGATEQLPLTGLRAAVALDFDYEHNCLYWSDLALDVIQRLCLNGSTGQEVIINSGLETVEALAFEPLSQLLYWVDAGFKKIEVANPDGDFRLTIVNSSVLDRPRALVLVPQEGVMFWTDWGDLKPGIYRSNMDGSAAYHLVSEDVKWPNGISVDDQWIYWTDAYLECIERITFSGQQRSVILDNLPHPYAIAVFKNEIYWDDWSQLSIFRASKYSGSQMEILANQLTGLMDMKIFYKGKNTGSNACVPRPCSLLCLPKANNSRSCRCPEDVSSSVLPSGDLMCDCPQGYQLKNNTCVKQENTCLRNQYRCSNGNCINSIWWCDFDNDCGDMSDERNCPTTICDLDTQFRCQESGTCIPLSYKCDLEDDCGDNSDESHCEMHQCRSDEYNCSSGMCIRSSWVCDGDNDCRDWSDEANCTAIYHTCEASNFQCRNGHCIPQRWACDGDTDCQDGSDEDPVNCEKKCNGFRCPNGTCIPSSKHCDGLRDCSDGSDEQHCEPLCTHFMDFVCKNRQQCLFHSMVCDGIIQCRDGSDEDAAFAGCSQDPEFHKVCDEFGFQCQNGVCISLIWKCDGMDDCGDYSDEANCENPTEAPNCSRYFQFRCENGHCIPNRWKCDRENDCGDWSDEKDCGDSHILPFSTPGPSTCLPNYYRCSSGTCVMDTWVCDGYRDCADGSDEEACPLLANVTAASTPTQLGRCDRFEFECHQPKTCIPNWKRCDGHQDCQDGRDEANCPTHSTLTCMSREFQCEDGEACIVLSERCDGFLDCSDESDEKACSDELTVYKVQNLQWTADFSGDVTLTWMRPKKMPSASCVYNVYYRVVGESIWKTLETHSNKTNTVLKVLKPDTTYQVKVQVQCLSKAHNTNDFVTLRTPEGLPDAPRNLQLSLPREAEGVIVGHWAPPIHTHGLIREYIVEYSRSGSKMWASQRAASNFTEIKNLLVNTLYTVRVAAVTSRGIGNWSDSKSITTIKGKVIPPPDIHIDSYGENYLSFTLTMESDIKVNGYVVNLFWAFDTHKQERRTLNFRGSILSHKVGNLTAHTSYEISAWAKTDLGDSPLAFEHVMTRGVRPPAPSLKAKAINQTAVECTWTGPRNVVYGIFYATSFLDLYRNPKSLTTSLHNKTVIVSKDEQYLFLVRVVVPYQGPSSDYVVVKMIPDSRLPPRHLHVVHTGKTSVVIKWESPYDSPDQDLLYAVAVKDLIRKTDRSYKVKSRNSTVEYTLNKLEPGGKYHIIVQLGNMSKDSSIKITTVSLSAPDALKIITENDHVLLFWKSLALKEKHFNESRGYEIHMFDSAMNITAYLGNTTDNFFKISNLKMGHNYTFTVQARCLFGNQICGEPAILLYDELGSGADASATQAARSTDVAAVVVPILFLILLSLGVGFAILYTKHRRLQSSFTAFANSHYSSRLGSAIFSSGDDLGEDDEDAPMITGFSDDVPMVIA
# UniProt Q92673, sequence (Q92673 82-2214, chain 2 of 2): as the sequence (Q92673 82-2214, chain 1 of 2) above
Substance,stoichiometry N [1],co-IP product relative to total input [2] [%]
"PA-tagged SORLA VPS10p-domain (1 to 753), T659C mutant (from UniProt Q92673 29-753) (domain or fragment)",2,
VPS26b subunit of retromer (from UniProt Q4G0F5 1-336) (natural protein),,6
